The term Kd denotes the equilibrium constant for the complex coming apart. Lower therefore signals higher affinity.

Experimental findings from paper PMC6531468 are described below.

Data set [1] concerns the target IMP3 KH3-4 (Homo sapiens) (UniProt O00425). Briefly: SELEX. To be noted: round 4.
Data set [2] deals with IMP3 KH1-2 (Homo sapiens) (UniProt O00425). Briefly: SELEX. The settings on record: round 4.
Data set [3] has as its target IMP3 KH1-4 (Homo sapiens) (UniProt O00425). In words: SELEX. The settings on record: round 4.
Data set [4] deals with IMP3 RRM1-2 (Homo sapiens) (UniProt O00425). In words: SELEX. The settings on record: round 2.
Sequence of IMP3 RRM1-2 (Homo sapiens) (O00425 1-163): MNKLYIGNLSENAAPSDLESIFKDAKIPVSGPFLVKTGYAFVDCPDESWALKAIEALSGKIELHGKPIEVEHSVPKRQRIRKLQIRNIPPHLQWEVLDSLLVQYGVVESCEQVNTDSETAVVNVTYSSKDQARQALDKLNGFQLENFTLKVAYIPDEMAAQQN
Data set [5] addresses IMP3 full length (Homo sapiens) (UniProt O00425). In words: SELEX. To be noted: round 4.
For data set [6] the target is unchanged. In words: EMSA. To be noted: Hill n 3.1; EMSA: 10 mM Tris-HCl pH 7.5, 150 mM NaCl, 0.5 mM EDTA, 0.5 mM DTT, 0.1% NP-40, 5% glycerol, tRNA+BSA, 5 nM RNA, 30 min RT then ice; ITC/NMR: 20 mM Bis-Tris …. A general note: In EMSA bound probe runs differently from free probe, usually more slowly.

Sequence of IMP3 KH1-2 (Homo sapiens) (O00425 164-376): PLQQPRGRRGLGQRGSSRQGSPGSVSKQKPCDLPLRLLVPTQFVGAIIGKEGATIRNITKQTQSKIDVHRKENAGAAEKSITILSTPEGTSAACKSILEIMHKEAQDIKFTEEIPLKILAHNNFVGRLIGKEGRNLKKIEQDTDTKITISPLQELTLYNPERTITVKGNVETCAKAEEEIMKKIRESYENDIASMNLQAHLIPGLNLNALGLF
Sequence of IMP3 KH1-4 (Homo sapiens) (O00425 164-579): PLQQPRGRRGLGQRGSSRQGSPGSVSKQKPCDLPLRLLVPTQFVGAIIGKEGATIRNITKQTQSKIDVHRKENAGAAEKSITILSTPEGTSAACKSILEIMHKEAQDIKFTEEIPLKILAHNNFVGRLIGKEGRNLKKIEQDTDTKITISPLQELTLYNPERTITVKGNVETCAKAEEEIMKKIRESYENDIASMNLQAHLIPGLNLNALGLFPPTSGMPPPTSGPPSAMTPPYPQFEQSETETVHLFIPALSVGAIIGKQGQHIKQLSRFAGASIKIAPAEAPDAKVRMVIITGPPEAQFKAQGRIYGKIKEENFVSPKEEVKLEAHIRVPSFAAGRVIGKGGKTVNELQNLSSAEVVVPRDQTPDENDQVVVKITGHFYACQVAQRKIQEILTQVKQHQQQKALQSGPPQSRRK
Sequence of IMP3 KH3-4 (Homo sapiens) (O00425 377-579): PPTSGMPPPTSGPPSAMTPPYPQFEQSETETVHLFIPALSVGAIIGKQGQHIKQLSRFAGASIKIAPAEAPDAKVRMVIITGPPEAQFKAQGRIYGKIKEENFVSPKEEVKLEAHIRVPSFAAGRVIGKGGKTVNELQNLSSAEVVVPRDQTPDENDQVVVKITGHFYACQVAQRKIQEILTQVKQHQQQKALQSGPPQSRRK
Sequence of IMP3 full length (Homo sapiens) (O00425 whole entry): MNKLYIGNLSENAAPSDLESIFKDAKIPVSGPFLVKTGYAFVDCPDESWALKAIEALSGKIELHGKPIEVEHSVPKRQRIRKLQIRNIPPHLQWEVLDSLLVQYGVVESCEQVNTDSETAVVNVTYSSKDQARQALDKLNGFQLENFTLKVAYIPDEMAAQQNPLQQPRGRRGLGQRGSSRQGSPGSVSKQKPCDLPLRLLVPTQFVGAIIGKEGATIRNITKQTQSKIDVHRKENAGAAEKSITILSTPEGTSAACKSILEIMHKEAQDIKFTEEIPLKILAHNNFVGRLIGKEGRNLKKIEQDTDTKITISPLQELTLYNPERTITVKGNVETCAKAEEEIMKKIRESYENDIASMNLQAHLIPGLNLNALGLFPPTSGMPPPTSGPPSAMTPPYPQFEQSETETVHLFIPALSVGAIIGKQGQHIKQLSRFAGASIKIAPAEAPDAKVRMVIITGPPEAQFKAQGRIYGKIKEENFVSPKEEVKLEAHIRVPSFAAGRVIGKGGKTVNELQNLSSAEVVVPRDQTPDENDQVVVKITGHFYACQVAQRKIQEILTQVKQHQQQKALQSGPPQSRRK

AAAUAA [6-mer AAATAA] came in with a binding signal (SELEX z-score, GST-corrected) in data set [1] of 3.39. As to AACACA [6-mer AACACA], the binding signal (SELEX z-score, GST-corrected) in data set [2] came to 4.09; in data set [3] it was 2.92; in data set [4], 5.77; in data set [5], 4.2. AACAUA [6-mer AACATA]: the binding signal (SELEX z-score, GST-corrected) in data set [2] is 2.92; in data set [1] it was 3.48. AAUAAA [6-mer AATAAA] gave a binding signal (SELEX z-score, GST-corrected) in data set [1] of 3.28. The same measure, in the same setting: next, AAUAAU [6-mer AATAAT]: 3.24. In the case of AAUACA [6-mer AATACA], the binding signal (SELEX z-score, GST-corrected) in data set [2] came to 3.44; in data set [3], 2.77; in data set [1] it was 3.32. In turn, AAUAUA [6-mer AATATA] yielded a binding signal (SELEX z-score, GST-corrected) in data set [1] of 3.67.

Regarding AAUCAU [6-mer AATCAT], the binding signal (SELEX z-score, GST-corrected) in data set [4] was 3.82. Consider AAUGAA [6-mer AATGAA], for which the binding signal (SELEX z-score, GST-corrected) in data set [1] was 3.19. AAUUAA [6-mer AATTAA]: the binding signal (SELEX z-score, GST-corrected) in data set [1] was determined as 3.41. Take ACAACA [6-mer ACAACA]: the values for the binding signal (SELEX z-score, GST-corrected) in data set [2] and in data set [4] were 2.86 and 3.86, respectively. For ACAAUA [6-mer ACAATA], the binding signal (SELEX z-score, GST-corrected) in data set [2] came to 3.75; in data set [3], 2.68; in data set [1] it was 3.13. In turn, ACACAA [6-mer ACACAA] showed a binding signal (SELEX z-score, GST-corrected) in data set [4] of 4.19. On to ACACAC [6-mer ACACAC], for which the binding signal (SELEX z-score, GST-corrected) amounted to 3.26 in data set [2] and 5.19 in data set [4]. Take ACACAU [6-mer ACACAT]: the binding signal (SELEX z-score, GST-corrected) in data set [2] worked out at 3.81; in data set [3], 3.27; in data set [4] it was 4.49; in data set [5] it was 3.99. ACAUAA [6-mer ACATAA]: the values for the binding signal (SELEX z-score, GST-corrected) in data set [2], in data set [3] and in data set [1] were 3.61, 2.92 and 3.74, respectively.

Turning to ACAUAU [6-mer ACATAT], the binding signal (SELEX z-score, GST-corrected) in data set [2] was 2.92; in data set [3], 2.88; in data set [1] it was 3.36. As to ACAUCA [6-mer ACATCA], the values for the binding signal (SELEX z-score, GST-corrected) in data set [4] and in data set [5] were 3.94 and 4.02, respectively.

Consider ACGGCA [6-mer ACGGCA], for which the binding signal (SELEX z-score, GST-corrected) came to 3.02 in data set [3] and 4.07 in data set [5]. For the substance AUAACA [6-mer ATAACA], the binding signal (SELEX z-score, GST-corrected) is 3.77 in data set [2], 3.19 in data set [3] and 4.15 in data set [1]. For AUAAUA [6-mer ATAATA], the binding signal (SELEX z-score, GST-corrected) in data set [1] came out at 3.54. For the substance AUACAU [6-mer ATACAT], the binding signal (SELEX z-score, GST-corrected) in data set [2] is 3.08; in data set [3], 2.8. In the case of AUAUAA [6-mer ATATAA], the binding signal (SELEX z-score, GST-corrected) in data set [1] is 3.89. AUCACA [6-mer ATCACA]: the results for the binding signal (SELEX z-score, GST-corrected) in data set [4] and in data set [5] were 4.39 and 3.5, respectively. Take CAAACA [6-mer CAAACA]: the binding signal (SELEX z-score, GST-corrected) in data set [4] stood at 3.91. Regarding CAACAC [6-mer CAACAC], in data set [4], the binding signal (SELEX z-score, GST-corrected) was found to be 3.39. The substance CAAUCA [6-mer CAATCA] yielded a binding signal (SELEX z-score, GST-corrected) in data set [4] of 5.47. In the case of CACAAC [6-mer CACAAC], the binding signal (SELEX z-score, GST-corrected) in data set [4] was found to be 3.4. As for CACACA [6-mer CACACA], the binding signal (SELEX z-score, GST-corrected) in data set [2] is 4.01; in data set [3], 3.36; in data set [4] it was 6.79; in data set [5], 4.75. Regarding CACAUA [6-mer CACATA], the binding signal (SELEX z-score, GST-corrected) was 3.62 in data set [2] and 3.19 in data set [3]. For CAUACA [6-mer CATACA], the binding signal (SELEX z-score, GST-corrected) in data set [2] amounted to 3.49; in data set [3] it was 2.86; in data set [4] it was 3.6; in data set [5] it was 3.76. In the case of CAUCAC [6-mer CATCAC], in data set [5], the binding signal (SELEX z-score, GST-corrected) amounted to 3.28.

The substance CAUCAU [6-mer CATCAT] had a binding signal (SELEX z-score, GST-corrected) in data set [5] of 3.65. Regarding CAUUCA [6-mer CATTCA], the binding signal (SELEX z-score, GST-corrected) in data set [4] is 3.79; in data set [5], 3.36. CGGCAC [6-mer CGGCAC]: the binding signal (SELEX z-score, GST-corrected) was 2.99 in data set [3] and 4.28 in data set [5].

In turn, CGGCCA [6-mer CGGCCA] gave a binding signal (SELEX z-score, GST-corrected) in data set [3] of 2.71. GCACAC [6-mer GCACAC]: the binding signal (SELEX z-score, GST-corrected) in data set [5] was 3.25. GGCACA [6-mer GGCACA]: the binding signal (SELEX z-score, GST-corrected) in data set [3] stood at 3.92; in data set [1] it was 3.69; in data set [5], 4.85.

In the case of GGCAUC [6-mer GGCATC], the binding signal (SELEX z-score, GST-corrected) in data set [5] amounted to 3.48. As to GUCGGC [6-mer GTCGGC], the binding signal (SELEX z-score, GST-corrected) in data set [5] was 3.3.

HMGA2 WT yielded a dissociation constant Kd in data set [6] of 13.1 nM.

Turning to UACACA [6-mer TACACA], in data set [2], the binding signal (SELEX z-score, GST-corrected) was 2.92.
